1 substance from paper doi:10.1101/2022.03.17.484533 can be followed below.

In experiment [1] the target is LiRecT (RecT homolog from the A118 prophage of Listeria innocua) (Listeria innocua). Kind of experiment: cryo-EM structure.
Experiment [2] shares this target. Kind of experiment: cryo-EM structure. This is another data set of the same source.
The target is the same in experiment [3]. The experiment in a line: native MS.

A value given as a limit tells only on which side of the number the result lay.

For orientation: stoichiometry N means a count of units in the complex or per binding partner. With “LiRecT (RecT homolog from the A118 prophage of Listeria innocua) (natural protein)”, the stoichiometry N was 12 subunits in experiment [1], 18 subunits in experiment [2] and < 9 subunits in experiment [3].
